Several values for one entry are separate records, joined by “and”; a condition that tells them apart may be missing. Equal values may be shown once.
Experiment: AlbuBChE serum pharmacokinetics after single IM dose (ELISA)
Settings: for tmax: group value
Description: The study included a total of 11 naïve, adult male cynomolgus monkeys divided into four dose groups: • a control group of two cynomologus monkeys that only received a single IV dose of cocaine; • three dose groups that were treated with a single IM dose of AlbuBChE at 0.2, 1 or 5 mg/kg. Three naïve, adult male cynomolgus monkeys were used in each dose group. Following AlbuBChE treatment, a 1 mg/kg IV dose of cocaine was administered at 2, 48, 96, 120, and 240 hours after AlbuBChE dose administration.
A single intramuscular (IM) administration of AlbuBChE was administered on study day 1 and blood was collected at the time points outlined in Table 2. Approximately 0.5 mL of whole blood was collected from the femoral vein into serum separate tubes (SST).
Blocking is done with 2% Casein in 1×PBS, 200 μL/well, 2 hours at room temperature. After washing, 100 μL of diluted serum samples are added to the plates along with standards. Standards are generated through 3.64 fold, serial dilution of AlbuBChE from 2000 to 3.1 ng/mL. Serum samples and standards are maintained at 10% serum by dilution with buffer containing pooled cynomolgus monkey serum. A wash step precedes detection with 100 μL of anti-HSA mAb-6502-HRP at 0.04 μg/mL for 1 hour. Wells are washed again, prior to developing with 100 μl of TMB substrate. After 15 minutes, the reaction is terminated with 100 μL/well of 1N H2SO4 and read on SpectraMax plate reader at 450/570 nm. Values for unknown serum samples are calculated by interpolation of standard curve generated by 4-parameter fit of AlbuBChE standards. The limit of quantitation in cynomolgus serum was 21.1 ng/mL.
AlbuBChE pharmacokinetic parameter values were determined using serum concentration-time profiles for individual animals. The computer software WinNonlin Professional (Version 4.0.1 Pharsight Corporation, USA) was used. Specifically the model for non-compartmental analysis with extravascular input was applied. If there were fewer than 3 data points in the terminal phase of the serum concentration curve, a terminal phase half-life and PK parameters derived from the half-life were not calculated for that profile. Parameters analyzed include tmax, Cmax, t1/2, AUC(0-t) and AUC(0-∞) were calculated.

## AlbuBChE
0.2 mg/kg IM
  AUC % Extrap, individual animals: 19.3% and 18.8% and 14.1%
  AUC(0-t), individual animals: 2746 ng·h/mL and 7878 ng·h/mL and 8479 ng·h/mL
  AUC(0-∞), individual animals: 3404 ng·h/mL and 9704 ng·h/mL and 9867 ng·h/mL
  Cmax, individual animals: 176 ng/mL and 279 ng/mL and 281 ng/mL
  Dose Normalized AUC(0-∞): 38292
  Dose Normalized Cmax: 1226
  Mean AUC % Extrap: 17.4%
  Mean AUC(0-t): 6368 ng·h/mL
  Mean AUC(0-∞): 7658 ng·h/mL
  Mean Cmax: 245 ng/mL
  Mean t½: 27.2 h
  Tmax, individual animals: 3 h
  t½, individual animals: 15.3 h and 42.1 h and 24.4 h
  tmax: 3 h
0.2 mg/kg IM, 1 hr post dose
  AlbuBChE serum concentration, individual animals: 37.1 ng/mL and 235.4 ng/mL and 111.0 ng/mL
  Mean AlbuBChE serum concentration: 128 ng/mL
0.2 mg/kg IM, 3 hr post dose
  AlbuBChE serum concentration, individual animals: 176.1 ng/mL and 278.5 ng/mL and 280.7 ng/mL
  Mean AlbuBChE serum concentration: 245 ng/mL
0.2 mg/kg IM, 6 hr post dose
  AlbuBChE serum concentration, individual animals: 144.0 ng/mL and 212.1 ng/mL and 272.4 ng/mL
  Mean AlbuBChE serum concentration: 210 ng/mL
0.2 mg/kg IM, 12 hr post dose
  AlbuBChE serum concentration, individual animals: 88.4 ng/mL and 143.1 ng/mL and 197.9 ng/mL
  Mean AlbuBChE serum concentration: 143 ng/mL
0.2 mg/kg IM, 24 hr post dose
  AlbuBChE serum concentration, individual animals: 52.3 ng/mL and 95.2 ng/mL and 135.7 ng/mL
  Mean AlbuBChE serum concentration: 94.4 ng/mL
0.2 mg/kg IM, 36 hr post dose
  AlbuBChE serum concentration, individual animals: 29.8 ng/mL and 68.3 ng/mL and 87.4 ng/mL
  Mean AlbuBChE serum concentration: 61.8 ng/mL
0.2 mg/kg IM, 48 hr post dose
  AlbuBChE serum concentration, individual animals: <LLOQ and 66.4 ng/mL and 80.7 ng/mL
  Mean AlbuBChE serum concentration: 73.6 ng/mL
0.2 mg/kg IM, 72 hr post dose
  AlbuBChE serum concentration, individual animals: <LLOQ and 44.5 ng/mL and 39.5 ng/mL
  Mean AlbuBChE serum concentration: 42.0 ng/mL
0.2 mg/kg IM, 96 hr post dose
  AlbuBChE serum concentration, individual animals: <LLOQ (2×) and 30.1 ng/mL
  Mean AlbuBChE serum concentration: <LLOQ
0.2 mg/kg IM, 128 hr post dose
  AlbuBChE serum concentration, individual animals: <LLOQ
  Mean AlbuBChE serum concentration: <LLOQ
0.2 mg/kg IM, 144 hr post dose
  AlbuBChE serum concentration, individual animals: <LLOQ
  Mean AlbuBChE serum concentration: <LLOQ
0.2 mg/kg IM, 168 hr post dose
  AlbuBChE serum concentration, individual animals: <LLOQ
  Mean AlbuBChE serum concentration: <LLOQ
0.2 mg/kg IM, 216 hr post dose
  AlbuBChE serum concentration, individual animals: <LLOQ
  Mean AlbuBChE serum concentration: <LLOQ
0.2 mg/kg IM, 264 hr post dose
  AlbuBChE serum concentration, individual animals: <LLOQ
  Mean AlbuBChE serum concentration: <LLOQ
1 mg/kg IM
  AUC % Extrap, individual animals: 2.54% and 3.67% and 2.90%
  AUC(0-t), individual animals: 43128 ng·h/mL and 51298 ng·h/mL and 46185 ng·h/mL
  AUC(0-∞), individual animals: 44251 ng·h/mL and 53255 ng·h/mL and 47564 ng·h/mL
  Cmax, individual animals: 1666 ng/mL and 1374 ng/mL and 1956 ng/mL
  Tmax, individual animals: 3 h
  t½, individual animals: 28.4 h and 34.3 h and 30.3 h
1.0 mg/kg IM
  Dose Normalized AUC(0-∞): 48357
  Dose Normalized Cmax: 1665
  Mean AUC % Extrap: 3.04%
  Mean AUC(0-t): 46871 ng·h/mL
  Mean AUC(0-∞): 48357 ng·h/mL
  Mean Cmax: 1665 ng/mL
  Mean t½: 31 h
  tmax: 3 h
1.0 mg/kg IM, 1 hr post dose
  AlbuBChE serum concentration, individual animals: 1058.9 ng/mL and 462.4 ng/mL and 1598.6 ng/mL
  Mean AlbuBChE serum concentration: 1040 ng/mL
1.0 mg/kg IM, 3 hr post dose
  AlbuBChE serum concentration, individual animals: 1665.5 ng/mL and 1374.0 ng/mL and 1956.0 ng/mL
  Mean AlbuBChE serum concentration: 1665 ng/mL
1.0 mg/kg IM, 6 hr post dose
  AlbuBChE serum concentration, individual animals: 1269.3 ng/mL and 1266.3 ng/mL and 1596.1 ng/mL
  Mean AlbuBChE serum concentration: 1377 ng/mL
1.0 mg/kg IM, 12 hr post dose
  AlbuBChE serum concentration, individual animals: 884.3 ng/mL and 968.1 ng/mL and 1049.5 ng/mL
  Mean AlbuBChE serum concentration: 967 ng/mL
1.0 mg/kg IM, 24 hr post dose
  AlbuBChE serum concentration, individual animals: 630.1 ng/mL and 673.8 ng/mL and 572.1 ng/mL
  Mean AlbuBChE serum concentration: 625 ng/mL
1.0 mg/kg IM, 36 hr post dose
  AlbuBChE serum concentration, individual animals: 373.4 ng/mL and 471.7 ng/mL and 348.2 ng/mL
  Mean AlbuBChE serum concentration: 398 ng/mL
1.0 mg/kg IM, 48 hr post dose
  AlbuBChE serum concentration, individual animals: 289.4 ng/mL and 362.7 ng/mL and 264.4 ng/mL
  Mean AlbuBChE serum concentration: 306 ng/mL
1.0 mg/kg IM, 72 hr post dose
  AlbuBChE serum concentration, individual animals: 122.1 ng/mL and 235.0 ng/mL and 133.0 ng/mL
  Mean AlbuBChE serum concentration: 163 ng/mL
1.0 mg/kg IM, 96 hr post dose
  AlbuBChE serum concentration, individual animals: 87.0 ng/mL and 131.7 ng/mL and 75.3 ng/mL
  Mean AlbuBChE serum concentration: 98.0 ng/mL
1.0 mg/kg IM, 128 hr post dose
  AlbuBChE serum concentration, individual animals: 36.2 ng/mL and 72.0 ng/mL and 38.1 ng/mL
  Mean AlbuBChE serum concentration: 48.8 ng/mL
1.0 mg/kg IM, 144 hr post dose
  AlbuBChE serum concentration, individual animals: 27.4 ng/mL and 47.7 ng/mL and 31.5 ng/mL
  Mean AlbuBChE serum concentration: 35.5 ng/mL
1.0 mg/kg IM, 168 hr post dose
  AlbuBChE serum concentration, individual animals: <LLOQ (2×) and 39.5 ng/mL
  Mean AlbuBChE serum concentration: <LLOQ
1.0 mg/kg IM, 216 hr post dose
  AlbuBChE serum concentration, individual animals: <LLOQ
  Mean AlbuBChE serum concentration: <LLOQ
1.0 mg/kg IM, 264 hr post dose
  AlbuBChE serum concentration, individual animals: <LLOQ
  Mean AlbuBChE serum concentration: <LLOQ
5 mg/kg IM
  AUC % Extrap, individual animals: 1.86% and 0.938% and 1.85%
  AUC(0-t), individual animals: 201754 ng·h/mL and 437848 ng·h/mL and 235983 ng·h/mL
  AUC(0-∞), individual animals: 205584 ng·h/mL and 441992 ng·h/mL and 240442 ng·h/mL
  Cmax, individual animals: 6016 ng/mL and 17687 ng/mL and 6530 ng/mL
  Tmax, individual animals: 6 h
  t½, individual animals: 63.4 h and 56.4 h and 65.5 h
5.0 mg/kg IM
  Dose Normalized AUC(0-∞): 59201
  Dose Normalized Cmax: 2016
  Mean AUC % Extrap: 1.55%
  Mean AUC(0-t): 291862 ng·h/mL
  Mean AUC(0-∞): 296006 ng·h/mL
  Mean Cmax: 10078 ng/mL
  Mean t½: 62 h and 61.8 h
  tmax: 6 h
5.0 mg/kg IM, 1 hr post dose
  AlbuBChE serum concentration, individual animals: 2580.0 ng/mL and 6570.9 ng/mL and 3821.0 ng/mL
  Mean AlbuBChE serum concentration: 4324 ng/mL
5.0 mg/kg IM, 3 hr post dose
  AlbuBChE serum concentration, individual animals: 4899.0 ng/mL and 12683.9 ng/mL and 6024.0 ng/mL
  Mean AlbuBChE serum concentration: 7869 ng/mL
5.0 mg/kg IM, 6 hr post dose
  AlbuBChE serum concentration, individual animals: 6016.0 ng/mL and 17686.8 ng/mL and 6530.3 ng/mL
  Mean AlbuBChE serum concentration: 10078 ng/mL
5.0 mg/kg IM, 12 hr post dose
  AlbuBChE serum concentration, individual animals: 4178.0 ng/mL and 11105.8 ng/mL and 5091.0 ng/mL
  Mean AlbuBChE serum concentration: 6792 ng/mL
5.0 mg/kg IM, 24 hr post dose
  AlbuBChE serum concentration, individual animals: 2836.0 ng/mL and 5034.0 ng/mL and 3325.0 ng/mL
  Mean AlbuBChE serum concentration: 3732 ng/mL
5.0 mg/kg IM, 36 hr post dose
  AlbuBChE serum concentration, individual animals: 1572.0 ng/mL and 2929.0 ng/mL and 1901.0 ng/mL
  Mean AlbuBChE serum concentration: 2134 ng/mL
5.0 mg/kg IM, 48 hr post dose
  AlbuBChE serum concentration, individual animals: 1329.7 ng/mL and 2644.4 ng/mL and 1604.9 ng/mL
  Mean AlbuBChE serum concentration: 1860 ng/mL
5.0 mg/kg IM, 72 hr post dose
  AlbuBChE serum concentration, individual animals: 637.7 ng/mL and 1190.8 ng/mL and 723.6 ng/mL
  Mean AlbuBChE serum concentration: 851 ng/mL
5.0 mg/kg IM, 96 hr post dose
  AlbuBChE serum concentration, individual animals: 415.1 ng/mL and 732.6 ng/mL and 454.7 ng/mL
  Mean AlbuBChE serum concentration: 534.1 ng/mL and 534 ng/mL
5.0 mg/kg IM, 128 hr post dose
  AlbuBChE serum concentration, individual animals: 217.2 ng/mL and 325.9 ng/mL and 224.3 ng/mL
  Mean AlbuBChE serum concentration: 255.8 ng/mL and 256 ng/mL
5.0 mg/kg IM, 144 hr post dose
  AlbuBChE serum concentration, individual animals: 158.4 ng/mL and 254.7 ng/mL and 163.3 ng/mL
  Mean AlbuBChE serum concentration: 192.1 ng/mL and 192 ng/mL
5.0 mg/kg IM, 168 hr post dose
  AlbuBChE serum concentration, individual animals: 118.9 ng/mL and 165.5 ng/mL and 130.4 ng/mL
  Mean AlbuBChE serum concentration: 138.3 ng/mL and 138 ng/mL
5.0 mg/kg IM, 216 hr post dose
  AlbuBChE serum concentration, individual animals: 73.7 ng/mL and 91.6 ng/mL and 79.4 ng/mL
  Mean AlbuBChE serum concentration: 81.6 ng/mL
5.0 mg/kg IM, 264 hr post dose
  AlbuBChE serum concentration, individual animals: 41.9 ng/mL and 50.9 ng/mL and 47.2 ng/mL
  Mean AlbuBChE serum concentration: 46.7 ng/mL
